Data as given in PMC9482650, “Quantitative fragmentomics allow affinity mapping of interactomes” (Nature Communications, 2022).

T1: SHANK1, Q9Y566
T1 sequence (Q9Y566 658-767, limits assumed, looked up): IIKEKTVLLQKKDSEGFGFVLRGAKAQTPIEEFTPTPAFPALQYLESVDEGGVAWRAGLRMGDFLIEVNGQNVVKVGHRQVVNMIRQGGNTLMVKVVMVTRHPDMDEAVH

T2: MPDZ_5, O75970
T2 sequence (O75970 695-796, limits assumed, looked up): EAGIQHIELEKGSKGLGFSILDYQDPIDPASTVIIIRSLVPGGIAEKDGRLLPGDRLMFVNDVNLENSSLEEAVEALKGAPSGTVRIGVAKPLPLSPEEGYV

T3: PARD3B_1, Q8TEW8
T3 sequence (Q8TEW8 196-299, limits assumed, looked up): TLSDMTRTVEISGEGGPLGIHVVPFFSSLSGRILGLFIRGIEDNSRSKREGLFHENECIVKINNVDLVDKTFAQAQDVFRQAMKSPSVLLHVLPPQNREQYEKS

T4: PDZD7_3, Q9H5P4
T4 sequence (Q9H5P4 857-944, limits assumed, looked up): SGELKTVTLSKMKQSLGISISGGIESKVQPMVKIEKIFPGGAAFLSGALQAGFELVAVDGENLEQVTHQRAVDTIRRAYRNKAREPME

T5: LNX2_2, Q8N448
T5 sequence (Q8N448 334-432, limits assumed, looked up): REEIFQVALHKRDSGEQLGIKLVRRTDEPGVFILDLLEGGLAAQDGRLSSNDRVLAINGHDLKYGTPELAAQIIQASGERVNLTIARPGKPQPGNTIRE

T6: SNTA1, Q13424
T6 sequence (Q13424 82-180, limits assumed, looked up): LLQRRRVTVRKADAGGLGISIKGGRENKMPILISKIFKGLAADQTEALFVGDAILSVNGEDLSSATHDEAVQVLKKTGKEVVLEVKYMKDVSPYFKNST

T7: APBA3_1, O96018
T7 sequence (O96018 389-490, limits assumed, looked up): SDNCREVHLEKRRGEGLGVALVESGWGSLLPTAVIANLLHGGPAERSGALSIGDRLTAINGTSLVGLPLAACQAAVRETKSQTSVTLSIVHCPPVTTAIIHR

T8: PCLO, Q9Y6V0
T8 sequence (Q9Y6V0 4491-4600, limits assumed, looked up): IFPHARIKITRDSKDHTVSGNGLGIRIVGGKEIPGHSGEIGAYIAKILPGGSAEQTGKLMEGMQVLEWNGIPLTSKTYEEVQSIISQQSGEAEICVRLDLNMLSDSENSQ

T9: MPDZ_10, O75970
T9 sequence (O75970 1624-1722, limits assumed, looked up): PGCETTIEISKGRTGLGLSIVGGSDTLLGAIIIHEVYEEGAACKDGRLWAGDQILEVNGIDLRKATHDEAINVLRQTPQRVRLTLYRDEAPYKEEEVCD

T10: GRIP1_3, Q9Y3R0
T10 sequence (Q9Y3R0 247-346, limits assumed, looked up): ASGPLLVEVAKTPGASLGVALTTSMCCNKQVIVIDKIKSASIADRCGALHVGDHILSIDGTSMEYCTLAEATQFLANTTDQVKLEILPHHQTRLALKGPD

T11: RADIL, Q96JH8
T11 sequence (Q96JH8 971-1071, limits assumed, looked up): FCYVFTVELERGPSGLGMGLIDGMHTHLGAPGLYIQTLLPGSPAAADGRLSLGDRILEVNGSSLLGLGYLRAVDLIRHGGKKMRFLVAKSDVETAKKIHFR

T12: SNTG1, Q9NSN8
T12 sequence (Q9NSN8 52-150, limits assumed, looked up): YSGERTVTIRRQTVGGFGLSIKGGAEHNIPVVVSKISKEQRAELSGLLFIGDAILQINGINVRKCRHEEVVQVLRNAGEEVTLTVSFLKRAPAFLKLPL

T13: DVL3, Q92997
T13 sequence (Q92997 244-331, limits assumed, looked up): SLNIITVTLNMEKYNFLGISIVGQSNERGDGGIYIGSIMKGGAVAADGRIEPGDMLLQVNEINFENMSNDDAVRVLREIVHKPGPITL


What was measured:
Test in all cases: holdup assay
Design in all cases: key: below the threshold = too weak to quantify, mostly under pKd 3.1 to 4
Details in all cases: plain residues with an end cap or a label only (N-terminal biotin on a linker: ado-ado)
FRMPD2_3, Q68DX3 = target: FRMPD2_3, Q68DX3
IL16_1, Q14005 = target: IL16_1, Q14005
SHANK1, Q9Y566 = target: T1, SHANK1, Q9Y566
MPDZ_5, O75970 = target: T2, MPDZ_5, O75970
PARD3B_1, Q8TEW8 = target: T3, PARD3B_1, Q8TEW8
PDZD7_3, Q9H5P4 = target: T4, PDZD7_3, Q9H5P4
CASK, O14936 = target: CASK, O14936
LNX2_2, Q8N448 = target: T5, LNX2_2, Q8N448
SNTA1, Q13424 = target: T6, SNTA1, Q13424
DLG4_2, P78352 = target: DLG4_2, P78352
MAGI1_2, Q96QZ7 = target: MAGI1_2, Q96QZ7
APBA3_1, O96018 = target: T7, APBA3_1, O96018
PCLO, Q9Y6V0 = target: T8, PCLO, Q9Y6V0
MPDZ_10, O75970 = target: T9, MPDZ_10, O75970
GRID2IP_1, A4D2P6 = target: GRID2IP_1, A4D2P6
LIMK2, P53671 = target: LIMK2, P53671
GRIP1_3, Q9Y3R0 = target: T10, GRIP1_3, Q9Y3R0
RADIL, Q96JH8 = target: T11, RADIL, Q96JH8
PDZRN4_1, Q6ZMN7 = target: PDZRN4_1, Q6ZMN7
SNTG1, Q9NSN8 = target: T12, SNTG1, Q9NSN8
DVL3, Q92997 = target: T13, DVL3, Q92997
MAGI2_4, Q86UL8 = target: MAGI2_4, Q86UL8
LNX1_1, Q8TBB1 = target: LNX1_1, Q8TBB1
Inadl_3, Q8NI35 = target: Inadl_3, Q8NI35
Inadl_3, Q8NI35, sequence (Q8NI35 359-469): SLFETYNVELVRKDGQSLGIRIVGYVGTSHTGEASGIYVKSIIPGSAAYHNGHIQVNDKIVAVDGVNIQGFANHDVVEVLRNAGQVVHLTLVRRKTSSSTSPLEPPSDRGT

MAGI1_2, Q96QZ7, sequence (Q96QZ7 456-580): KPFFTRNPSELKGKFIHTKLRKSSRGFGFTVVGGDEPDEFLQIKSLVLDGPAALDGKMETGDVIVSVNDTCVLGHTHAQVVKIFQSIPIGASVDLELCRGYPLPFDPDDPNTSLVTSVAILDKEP
FRMPD2_3, Q68DX3, sequence (Q68DX3 1073-1166): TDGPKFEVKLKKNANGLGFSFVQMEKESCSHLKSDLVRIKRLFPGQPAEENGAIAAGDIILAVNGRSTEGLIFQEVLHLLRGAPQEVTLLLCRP
LIMK2, P53671, sequence (P53671 143-248): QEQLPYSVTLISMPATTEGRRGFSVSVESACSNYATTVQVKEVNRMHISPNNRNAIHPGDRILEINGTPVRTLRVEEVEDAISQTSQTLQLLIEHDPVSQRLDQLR
LNX1_1, Q8TBB1, sequence (Q8TBB1 261-371): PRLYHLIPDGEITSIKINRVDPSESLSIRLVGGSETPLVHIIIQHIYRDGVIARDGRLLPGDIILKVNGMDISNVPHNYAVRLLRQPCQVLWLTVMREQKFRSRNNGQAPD
CASK, O14936, sequence (O14936 487-570): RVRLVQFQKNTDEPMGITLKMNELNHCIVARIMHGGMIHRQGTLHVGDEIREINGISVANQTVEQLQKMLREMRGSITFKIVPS
IL16_1, Q14005, sequence (Q14005 210-306): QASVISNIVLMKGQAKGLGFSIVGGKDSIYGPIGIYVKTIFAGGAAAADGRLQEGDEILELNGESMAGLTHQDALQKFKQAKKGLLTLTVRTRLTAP
DLG4_2, P78352, sequence (P78352 155-259): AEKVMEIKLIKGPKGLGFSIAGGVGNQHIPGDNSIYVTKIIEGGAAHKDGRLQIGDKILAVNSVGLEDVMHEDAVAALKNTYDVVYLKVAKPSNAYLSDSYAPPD
PDZRN4_1, Q6ZMN7, sequence (Q6ZMN7 213-318): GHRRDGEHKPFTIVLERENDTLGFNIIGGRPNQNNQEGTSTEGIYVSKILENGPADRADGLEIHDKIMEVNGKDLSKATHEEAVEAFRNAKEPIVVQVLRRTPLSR
GRID2IP_1, A4D2P6, sequence (A4D2P6 1-87): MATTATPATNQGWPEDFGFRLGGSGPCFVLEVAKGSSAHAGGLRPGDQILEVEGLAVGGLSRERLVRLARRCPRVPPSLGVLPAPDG
MAGI2_4, Q86UL8, sequence (Q86UL8 772-865): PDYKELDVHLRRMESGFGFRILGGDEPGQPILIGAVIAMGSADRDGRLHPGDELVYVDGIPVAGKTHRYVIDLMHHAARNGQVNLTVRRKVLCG

Binder	pKd (FRMPD2_3, Q68DX3)	pKd (IL16_1, Q14005)	pKd (SHANK1, Q9Y566)	pKd (MPDZ_5, O75970)	pKd (PARD3B_1, Q8TEW8)	pKd (PDZD7_3, Q9H5P4)	pKd (CASK, O14936)	pKd (LNX2_2, Q8N448)	pKd (SNTA1, Q13424)	pKd (DLG4_2, P78352)	pKd (MAGI1_2, Q96QZ7)	pKd (APBA3_1, O96018)	pKd (PCLO, Q9Y6V0)	pKd (MPDZ_10, O75970)	pKd (GRID2IP_1, A4D2P6)	pKd (LIMK2, P53671)	pKd (GRIP1_3, Q9Y3R0)	pKd (RADIL, Q96JH8)	pKd (PDZRN4_1, Q6ZMN7)	pKd (SNTG1, Q9NSN8)	further results
EGGKKRESEA [APPL1, Q9UKG1]	below the threshold	below the threshold	below the threshold	below the threshold	below the threshold	3.69	below the threshold	below the threshold	below the threshold	below the threshold	below the threshold	below the threshold	below the threshold	below the threshold	below the threshold	below the threshold	below the threshold	below the threshold	below the threshold	below the threshold	pKd (DVL3, Q92997): below the threshold; pKd (MAGI2_4, Q86UL8): below the threshold; pKd (LNX1_1, Q8TBB1): below the threshold; pKd (Inadl_3, Q8NI35): below the threshold
PKLMGVETVV [DUSP10, Q9Y6W6]	3.61	4.38	below the threshold	3.58	below the threshold	5.19	below the threshold	5.21	5.13	5.47	4.14	below the threshold	below the threshold	below the threshold	below the threshold	below the threshold	below the threshold	4.5	3.7	4.47	pKd (DVL3, Q92997): below the threshold; pKd (MAGI2_4, Q86UL8): 4.14; pKd (LNX1_1, Q8TBB1): 4.06; pKd (Inadl_3, Q8NI35): 4.51
SSGSTSSSRI [ADGRG1, Q9Y653]	below the threshold	below the threshold	4.31	below the threshold	3.93	4.3	below the threshold	below the threshold	below the threshold	3.6	below the threshold	below the threshold	below the threshold	below the threshold	below the threshold	below the threshold	below the threshold	below the threshold	below the threshold	below the threshold	pKd (DVL3, Q92997): below the threshold; pKd (MAGI2_4, Q86UL8): 3.77; pKd (LNX1_1, Q8TBB1): 3.66; pKd (Inadl_3, Q8NI35): below the threshold

Continued, in another order:

pKd (FRMPD2_3, Q68DX3)	pKd (IL16_1, Q14005)	pKd (SHANK1, Q9Y566)	pKd (MPDZ_5, O75970)	pKd (PARD3B_1, Q8TEW8)	pKd (PDZD7_3, Q9H5P4)	pKd (CASK, O14936)	pKd (LNX2_2, Q8N448)	pKd (SNTA1, Q13424)	pKd (DLG4_2, P78352)	pKd (MAGI1_2, Q96QZ7)	pKd (APBA3_1, O96018)	pKd (PCLO, Q9Y6V0)	pKd (MPDZ_10, O75970)	pKd (GRID2IP_1, A4D2P6)	pKd (LIMK2, P53671)	pKd (GRIP1_3, Q9Y3R0)	pKd (RADIL, Q96JH8)	pKd (PDZRN4_1, Q6ZMN7)	pKd (SNTG1, Q9NSN8)	Binder	further results
below the threshold	3.48	3.76	3.6	3.63	below the threshold	below the threshold	below the threshold	3.63	3.79	below the threshold	below the threshold	below the threshold	below the threshold	below the threshold	below the threshold	below the threshold	below the threshold	3.91	3.72	QLAEIAESGL [ITK, Q08881]	pKd (DVL3, Q92997): below the threshold; pKd (MAGI2_4, Q86UL8): below the threshold; pKd (LNX1_1, Q8TBB1): 3.9; pKd (Inadl_3, Q8NI35): below the threshold
below the threshold	below the threshold	below the threshold	below the threshold	below the threshold	below the threshold	below the threshold	below the threshold	below the threshold	3.59	below the threshold	below the threshold	below the threshold	below the threshold	below the threshold	below the threshold	below the threshold	below the threshold	below the threshold	below the threshold	PEEGKKQSQC [GAGE12J, A6NER3]	pKd (DVL3, Q92997): below the threshold; pKd (MAGI2_4, Q86UL8): below the threshold; pKd (LNX1_1, Q8TBB1): below the threshold; pKd (Inadl_3, Q8NI35): below the threshold
below the threshold	below the threshold	below the threshold	below the threshold	3.65	below the threshold	below the threshold	below the threshold	4.63	below the threshold	below the threshold	below the threshold	below the threshold	below the threshold	below the threshold	below the threshold	below the threshold	below the threshold	below the threshold	below the threshold	VGIERETDVL [EZH1, Q92800]	pKd (DVL3, Q92997): below the threshold; pKd (MAGI2_4, Q86UL8): below the threshold; pKd (LNX1_1, Q8TBB1): below the threshold; pKd (Inadl_3, Q8NI35): below the threshold
